Assay results as given in the Human Domainome abundance scans (Beltran et al. 2025).

B1: Intersectin-2, residues 1129 to 1183; numbered along this chain, Q9NZM3 (parent)
chain: VCQVIAMYDYAANNEDELSFSKGQLINVMNKDDPDWWQGEINGVTGLFPSNYVKM

Variants of: B1
Assay: abundance fitness (aPCA) (normalised: wild type 0, dead -1); higher = more abundant; growth selection in yeast, the domain comes from the species named
Conditions: Homo sapiens

Abundance fitness: each site, then its substitutions
K22: N -0.025, D -0.22, L -0.146, I -0.063, P -0.154, C -0.061, W -0.362, S -0.084, T -0.064, Q 0.033, V -0.074, F -0.164, M -0.118, H -0.146, R -0.121, A -0.027, Y -0.172, E -0.036, G -0.097
D35: L -0.029, K -0.071, H -0.048, Y -0.075, M -0.1, V -0.04, Q -0.099, C -0.167, R -0.021, F -0.085, W -0.145, P -0.39, N -0.032, I 0.03, S -0.035
W36: M 0.002, P -1.03, Y -0.054, R -0.019, L -0.029, T 0.011, S -0.1, K 0.045, G -0.626, E -0.108, V -0.052, I -0.159, H -0.054, N -0.023, A -0.092, D -0.323, C -0.003
Q38: A -0.009
L18: D -1.04, R -0.979, Y -0.966, M -0.046, G -0.861, N -0.783, T -0.778, I -0.001, S -0.854, P -0.895, V -0.092, K -0.647, F -0.2, Q -0.704, W -0.841, H -0.512
I26: F -0.085, E -0.789, H -1.07, K -0.972, M -0.232, G -0.821, N -0.719, P -0.925, D -0.857, Y -0.657, V -0.089, T -0.88, R -0.951, W -0.971, A -0.961, L -0.065
W37: K -1.03, T -0.854, A -0.857, L -0.384, R -0.787, C -0.516, E -0.928, N -0.771, Q -0.699, S -0.805, F -0.156, D -0.865, V -0.78, M -0.283, G -0.826, P -0.582, I -0.615
S21: T -0.028, H 0.082, A 0.001, W -0.125, G -0.039, P -0.04, Y -0.12, V -0.032, I -0.045, K 0.002, F -0.117, L -0.037, M -0.05, E -0.084, N -0.006, R -0.02, C -0.053, Q -0.137, D -0.021
L25: D 0.024, C -0.088, H -0.054, K -0.064, M 0.031, N -0.054, P -0.126, Q -0.089, V -0.011, Y -0.115, S -0.01, T -0.059, G -0.035, I 0.006, F -0.006, W -0.098, E 0.057
N30: T -0.034, W -0.16, M -0.025, C 0.005, A -0.002, S -0.028, F -0.09, R -0.019, K -0.001, G -0.04, I -0.135, Y -0.117, H -0.01, P -0.688, Q 0.019, D -0.087, V -0.045, E -0.046, L -0.021
M29: K -0.075, D -0.077, P -0.496, V -0.001, L -0.013, I -0.036, T 0.014, A -0.016, G -0.065, Y -0.18, Q -0.125, N -0.187, E -0.006, H -0.06, R -0.014, S -0.039, C -0.022, W -0.053
P34: K 0.055, Q 0.029, V -0.033, L -0.079, C -0.195, T -0.009, Y -0.147, I -0.071, N 0.036, G -0.028, E 0.03, R -0.018, M -0.015, H -0.194, A 0.005, D -0.01, W -0.161, S -0.013
G23: Y -0.047, V -0.903, Q -0.181, W -0.201, E -0.098, S -0.07, C -0.247, K -0.103, N 0, P -1.06, R -0.195, M -0.262, H 0.023, I -0.866, A -0.161, D -0.016, T -0.21
D32: H -0.18, L -0.11, Y -0.077, R -0.049, A -0.042, S -0.063, M -0.043, P 0.084, C -0.089, N 0.021, K -0.007, Q 0.046, F -0.205, T -0.075, W -0.086
F20: A -0.998, Q -0.844, S -0.871, C -0.596, D -1.03, I -0.163, H -0.988, R -0.98, K -0.921, P -0.919, L -0.079, Y -0.497, V -0.357, M -0.26, T -0.88
V28: M -0.155, I 0.006, N -1.01, Y -0.87, A -0.371, C -0.077, E -0.996, Q -1.04, S -0.94, L -0.048, P -0.882, F -0.778, R -0.718, G -0.937, W -0.963, K -1.04
K31: T 0.102, F -0.039, A 0.173, Y -0.103, D -0.044, R -0.061, I 0.029, W -0.138, E 0.006, Q -0.039, H -0.148, C 0.138, V 0.22, G -0.031
S19: P -0.166, M -0.21, D -0.168, G -0.052, N -0.047, W -0.313, L -0.615, Y -0.197, H -0.123, Q -0.217, E -0.193, R -0.181, A -0.045, C -0.066, K -0.163, F -0.256, I -0.515
Q24: M -0.051, W -0.038, D 0.022, Y -0.153, R -0.128, H -0.154, K -0.118, V -0.078, C -0.151, E -0.007, N -0.05, S -0.073, L -0.199, G -0.073, F -0.015
N27: R -0.037, G -0.122, M -0.02, W -0.123, L -0.07, Q 0.012, K -0.052, F -0.112, S -0.05, E 0.039, C -0.046, V -0.098, Y -0.081, H -0.089, I -0.015, T -0.043, P -0.351
D33: V -0.092, T -0.023, L -0.077, H 0.103, P -0.287, G -0.043, W -0.237, F -0.24, M -0.12, S -0.037, N -0.034, I -0.112, C 0.042, R -0.015, E -0.009, A -0.065
